Substitutions are numbered along the chain they refer to. Where two headings read alike, the source gives them in different places.
T1: human CX3CR1 (human, UniProt P49238 1-355)
T1 sequence: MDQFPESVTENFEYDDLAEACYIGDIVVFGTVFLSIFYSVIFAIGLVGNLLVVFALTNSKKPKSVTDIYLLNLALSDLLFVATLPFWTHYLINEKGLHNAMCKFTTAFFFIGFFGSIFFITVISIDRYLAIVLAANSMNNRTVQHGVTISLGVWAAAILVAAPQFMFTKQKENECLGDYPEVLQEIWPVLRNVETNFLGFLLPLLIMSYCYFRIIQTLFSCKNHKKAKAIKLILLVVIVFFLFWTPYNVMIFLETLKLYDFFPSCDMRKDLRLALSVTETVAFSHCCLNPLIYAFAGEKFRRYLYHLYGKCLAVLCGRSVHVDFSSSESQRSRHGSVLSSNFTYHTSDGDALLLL

T2: mouse CX3CR1 (mouse, UniProt Q9Z0D9 1-354)
T2 construct: whole, on cells; Expressed on Ba/F3 cells; also called mCX3CR1
T2 sequence (looked up): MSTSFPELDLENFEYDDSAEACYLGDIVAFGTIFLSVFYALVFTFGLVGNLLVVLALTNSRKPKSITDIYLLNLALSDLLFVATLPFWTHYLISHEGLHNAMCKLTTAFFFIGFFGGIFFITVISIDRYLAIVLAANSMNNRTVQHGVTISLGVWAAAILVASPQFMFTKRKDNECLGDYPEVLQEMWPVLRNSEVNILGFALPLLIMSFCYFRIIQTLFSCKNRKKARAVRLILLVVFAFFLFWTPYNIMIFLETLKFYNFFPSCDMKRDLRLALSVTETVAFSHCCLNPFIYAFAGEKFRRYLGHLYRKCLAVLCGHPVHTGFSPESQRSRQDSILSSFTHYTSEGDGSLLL

T3: rat CX3CR1 (rat, UniProt P35411 1-354)
T3 construct: whole, on cells; Expressed on Ba/F3 cells; also called rCX3CR1
T3 sequence (looked up): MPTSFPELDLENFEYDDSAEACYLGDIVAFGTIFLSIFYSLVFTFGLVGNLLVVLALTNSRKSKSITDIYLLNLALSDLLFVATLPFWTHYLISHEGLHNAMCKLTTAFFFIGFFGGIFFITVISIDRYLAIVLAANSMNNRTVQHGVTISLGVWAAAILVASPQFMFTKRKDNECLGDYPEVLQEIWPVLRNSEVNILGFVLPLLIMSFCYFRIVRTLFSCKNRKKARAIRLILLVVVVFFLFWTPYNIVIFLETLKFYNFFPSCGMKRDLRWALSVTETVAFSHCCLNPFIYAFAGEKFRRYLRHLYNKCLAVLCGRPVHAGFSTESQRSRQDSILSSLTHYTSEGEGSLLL

B1: h1F8-2-1 (antibody, V domains shown)
VH: QVQLVQSGAEVKKPGSSVKVSCKASGFTFTNYWMQWIRQAPGQGLEWIGAIYPGSGESRYTRKFKGRATITADKSTSTAYMELSSLRSEDTAVYYCARWAGYSRNAAYWGQGTLVTVSS
VL: DIVMTQTPLSLPVTPGEPASISCRSRQSIVHSSGNTYLEWYLQKPGQSPQLLIYKVSNRFSGVPDRFSGSGSGTDFTLKISRVEAEDVGVYYCFQGSHIPPTFGGGTKVEIK
notes: Humanized antibody; also called humanized 1F8 antibody h1F8-2-1
B2: m1F8-1 antibody (antibody, V domains shown)
VH: QVQLQQSGAELARPGASVKLSCKASGFTFTNYWMQWIKQRPGQGLEWIGAIYPGSGESRYTRKFKGKATLTADKSSSTAYMQLNSLASEDSAVYYCARWAGYSRNAAYWGQGTLVTVSA
VL: B1 VL with I2V, V3L, T14S, P15L, E17D, P18Q, R26S, Q50K, V88L, V109L
notes: also called activity-enhanced m1F8 antibody
B3: m1F8-2 antibody (antibody, V domains shown)
VH: B2 VH
VL: B1 VL with I2V, V3L, T14S, P15L, E17D, P18Q, Q50K, V88L, V109L
notes: as for B2
B4: h1F8-2-2 antibody (antibody, IgG1, V domains shown)
VH: B1 VH with R67K
VL: B1 VL
notes: Humanized antibody; also called humanized 1F8 antibody (h1F8-2-2)
B5: h1F8-2-4 (antibody, V domains shown)
VH: B1 VH with A68V
VL: B1 VL
notes: Humanized antibody; also called humanized 1F8 antibody h1F8-2-4
B6: h1F8-2-3 (antibody, V domains shown)
VH: B1 VH with I70L
VL: B1 VL
notes: Humanized antibody; also called humanized 1F8 antibody h1F8-2-3

Tests used:
[1] = target: T1, human CX3CR1; assay: cell-based or functional assay
[2] = target: T1, human CX3CR1; assay: binding to hCX3CR1-expressing Eurofins cells
[3] = target: T1, human CX3CR1; assay: flow cytometry, binding to hCX3CR1-expressing Ba/F3 cells
[4] = target: T2, mouse CX3CR1; assay: flow cytometry, chimeric CX3CR1-expressing Ba/F3 cells
[5] = target: T4, mCX3CR1-4 (chimeric CX3CR1); assay: as above
T4 construct: Whole, on Ba/F3 cells

[6] = target: T5, mCX3CR1-2 (chimeric CX3CR1); assay: as above
T5 construct: Whole, on Ba/F3 cells

[7] = target: T6, mCX3CR1-3 (chimeric CX3CR1); assay: as above
T6 construct: Whole, on Ba/F3 cells

[8] = target: T2, mouse CX3CR1; assay: flow cytometry, CX3CR1-expressing Ba/F3 cells
[9] = target: T3, rat CX3CR1; assay: flow cytometry, CX3CR1-expressing Ba/F3 cells
[10] = target: T1, human CX3CR1; assay: cell-based or functional assay; remark: listed apart in the source
[11] = target: T7, hCX3CR1-3 (chimeric CX3CR1); assay: flow cytometry, chimeric CX3CR1-expressing Ba/F3 cells, 200 nM, grade vs positive antibody (+++ >70%, ++ 40-70%, + 10-40%, - <10%)
T7 construct: Whole, on Ba/F3 cells

[12] = target: T8, hCX3CR1-2 (chimeric CX3CR1); assay: as above
T8 construct: Whole, on Ba/F3 cells

[13] = target: T9, mCX3CR1-1 (chimeric CX3CR1); assay: as above
T9 construct: Whole, on Ba/F3 cells

[14] = target: T10, hCX3CR1-4 (chimeric CX3CR1); assay: as above
T10 construct: Whole, on Ba/F3 cells

[15] = target: T11, hCX3CR1-1 (chimeric CX3CR1); assay: as above
T11 construct: Whole, on Ba/F3 cells

[16] = target: T1, human CX3CR1; assay: as above
[17] = target: T1, human CX3CR1; assay: flow cytometry, EC50 on hCX3CR1-expressing Ba/F3 cells, against m1F8
[18] = target: T4, mCX3CR1-4 (chimeric CX3CR1); assay: flow cytometry, chimeric CX3CR1-expressing Ba/F3 cells, 200 nM, grade vs positive antibody (+++ >70%, ++ 40-70%, + 10-40%, - <10%)
[19] = target: T1, human CX3CR1; assay: cell-based or functional assay; remark: listed apart in the source
[20] = target: T2, mouse CX3CR1; assay: flow cytometry, CX3CR1-expressing Ba/F3 cells, relative to Synagis
[21] = target: T3, rat CX3CR1; assay: as above

Binder	Cell migration inhibitory activity (IC50, nM) [1]	EC50 [2]	EC50 [3]	relative measured value (flow cytometry reactivity, MFI) compared to positive antibody at 200 nM [4]	relative measured value (flow cytometry reactivity, MFI) compared to positive antibody at 200 nM [6]	relative measured value (flow cytometry reactivity, MFI) compared to positive antibody at 200 nM [7]	binding result [8]	binding result [9]	Cell migration inhibitory activity (IC50, nM) [10]	relative measured value (flow cytometry reactivity, MFI) compared to positive antibody at 200 nM [11]	relative measured value (flow cytometry reactivity, MFI) compared to positive antibody at 200 nM [12]	relative measured value (flow cytometry reactivity, MFI) compared to positive antibody at 200 nM [13]	relative measured value (flow cytometry reactivity, MFI) compared to positive antibody at 200 nM [14]	relative measured value (flow cytometry reactivity, MFI) compared to positive antibody at 200 nM [15]	relative measured value (flow cytometry reactivity, MFI) compared to positive antibody at 200 nM [16]	further results
B1	2.02 nM	4.42 nM														
B2			6.69 nM	< 10%	< 10%	< 10%	no binding (tested: <10% of positive antibody at 200 nM)	no binding (tested: <10% of positive antibody at 200 nM)	5.32 nM	> 70%	> 70%	> 70%	> 70%	40 to 70%	> 70%	relative measured value (flow cytometry reactivity, MFI) compared to positive antibody at 200 nM [5]: < 10%
B3			2.67 nM	< 10%	< 10%	< 10%	no binding (tested: <10% of positive antibody at 200 nM)	no binding (tested: <10% of positive antibody at 200 nM)	2.96 nM	> 70%	> 70%	> 70%	> 70%	40 to 70%	> 70%	fold improvement in binding activity compared to the original m1F8 antibody [17]: ≥ 70 fold; relative measured value (flow cytometry reactivity, MFI) compared to positive antibody at 200 nM [18]: 10 to 40%; improvement in inhibitory activity against fractalkine-dependent cell migration compared to the original m1F8 antibody [19]: ≥ 15 fold
B4	1.27 nM	3.1 nM														binding result [20]: no binding; binding result [21]: no binding
B5	2.61 nM	4.42 nM														
B6	1.4 nM	4.02 nM														
